Experimental findings from the RNAGym collection of RNA variant scans (doi:10.1073/pnas.2313332121) are described below.

B1: TPR t1 (parent)
chain: GACCAAUCUGCCCUCAGAGCUCGAGAACAUCUUCGGAUGCAGAGGAGGCAGGCUUCGGUGGCGCGAUAGCGCCAACGUCCUCAACCUCCAAUGCAUCCCACCACAUGAUGAUGCCUGAAGAGCCUUGGUUUUUUG

Variants of B1 are the subject of the series. As to the kind of experiment: polymerase ribozyme fitness, log enrichment relative to wild type (log ratio); higher = more active; in vitro selection for triplet polymerase activity. Summed up: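 Streptavidin-bead capture of gel-excised extended constructs, followed by RT-PCR, closed a single triplicate in vitro selection round. That round began by annealing PCR-built, transcribed mutant libraries of each subunit of a heterodimeric triplet polymerase ribozyme with a biotinylated primer, the partner subunit and triplets, then incubating them frozen at −7 °C. After Illumina sequencing of inputs and outputs, genotypes needed ≥10 input reads and ≥1 read per output. Fitness is the base-2 logarithm of genotype enrichment over wild-type enrichment, using inverse-variance-weighted replicate averages.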
In the case of GACCAAUCUGCCCUCAGAGCUCGAGAACAUCUUCGGAUGCAGAGGAGGCAGGCUUCGGUGGCGCGAUAGCGCCAACGUCCUCAACCUCCAAUGGAUCCCACCACAUGAUGAUGCCUGAAGAGCGUUGGUUUUUUG [C94G C124G], the “polymerase ribozyme fitness (log ratio)” value came to 1.09.

As for GACCAAUCUGCCCUCAGAGCUCGAGAACAUCUUCGGAUGCAGAGGAGGCAGGUUUCGGUGGCGCGAUAGCGCCAACGUCCUCAACCUCCCAUGCAGCCCACCACAUGAUGAUGCCUGUAGAGCCUUGGUUUUUUG [C53U A90C U96G A118U], the “polymerase ribozyme fitness (log ratio)” value was -1.37.

As for GACCAAUCUGCCCUCAGAGGUCGAGAACAUCUUCGGAUGCAGAGGAGGCAGGCUUCGGUGGCGCGAUAGCGCAAACGUCCUCAACCUCCAAUGCAUCCCACCACAUGAUGAUGCGUGAAGAGCCUUGGUUUUUUG [C20G C73A C115G], the “polymerase ribozyme fitness (log ratio)” value is -5.35.

For GACCAAUCUGCCCUCAGAGCCCGAGAACUUCUUCGGAUGCAGAGGAGGCAGGCUUCGGUGGUGCGAUAGCGCCAACGUCCUCACCCUCCAAUGCAUCCCACCACAUGAUGAAGCCUGAGCAGCCUUGGUUUUUUG [U21C A29U C62U A84C U112A A119G G120C], the “polymerase ribozyme fitness (log ratio)” value was -1.53.

With GACCAAUCUGCCCUCAGAGCUCGAGAACAUCUUCGGAUGCAGAGGAGGCAGGCUUCGGUGGCACGAUAGCGCCAACGUCCUCAACCUCCAAUGCAUCCCACCACAUGAUGAUGCCUCAAGAGCCUUGGUUUUUUG [G63A G117C], the “polymerase ribozyme fitness (log ratio)” value was -3.7.

For the variant GACCAAUCUGCCCUCAAAGCUCGAGAACAUCUUCGGAUGCAGAGGAGGCAGGCUUCGGUGGCGCGAUAGCGCCAACGUCCUCAACCUCCAAUGCAUCCCACCACAUGAUGAAGCCUGAAGAGCCUUGGUUUUUUG [G17A U112A], the “polymerase ribozyme fitness (log ratio)” value is -1.5.

Turning to GACUAAUCUGCCCUCAGAGCUCGAGAACAUCUUCGGAUGCAGAGGAGGCAGGCUUCGGUGGCGCGAUAGUGCCAACGUCCUCAAGUUCCAAUGCAUCCCACCACAUGAUGAUGCCUGAAGAGCCUUGGUUUUUUG [C4U C70U C85G C86U], the “polymerase ribozyme fitness (log ratio)” value was -2.03.

Turning to GACCAAUCUGCCCUCAGAGCUCGAGAACAUCUUCGGAUGCAGAGGAGGCAGGCUUCGGUGGCGCGAUAGCGCCAACGUCCUCAACCUCCAAGGCAUCCCACCACAUGAUAAUGCCUGAAGAGCCUUGGUUUUUUG [U92G G110A], the “polymerase ribozyme fitness (log ratio)” value is -5.46.

On to GACCAAUCUGCCCUCAGAGCUCGAGAACAUCUUCGGAUGCAGAGGAGCCAGGCUUGGGUGGCGCGAUAGCACCAACGUCCUCAACCUCCAAUGCAUACCACCAUAUGAUGAGGCCUGAAGAGCCUUGGUUUUUUG [G48C C56G G71A C97A C104U U112G], for which the “polymerase ribozyme fitness (log ratio)” value was -6.76.

Regarding GACCAAUCUGCCCUCAGAGCUCGAGAACAUCUUCCGAUGCAGAGGAGGCAGGCUUCGGUGACGCGAUAGCGCCAACGUCCUCAACCUCCAAUGCAUCCCACCACAGGAUGAAGCCUGAAGAGCCUUGGUUUUUUG [G35C G61A U106G U112A], the “polymerase ribozyme fitness (log ratio)” value was -3.75.

As to GACCAAUCUGCCCUCAGAGCUCGAGAACAUCUUCGGAUGCAGCGGAGCCAGGCUUCGGUGGCGCGAUAGCGCCAACGUCCUCAACCUCCAAUGCAUCCCACCACAUGAUGAUCCCUGACUGGCCUUGGUUUUUUG [A43C G48C G113C A119C G120U A121G], the “polymerase ribozyme fitness (log ratio)” value is -2.55.

Consider GACCAAUCUGCCCUCAGAGCUCGAGAACAUCUUCGGAUGCAGAGGAGGCAGGCUUCUGUGGCGCGAUAUCGCCAACGUCCUCAACCUCCAAUGCAUCCCACCACAUGAUGAUGCUUGAAGAGCCUUGAUUUUUUG [G57U G69U C115U G128A], for which the “polymerase ribozyme fitness (log ratio)” value is -1.11.

For GACCAAUCUGCCCUCAGAGCUCGAGACCAUCUUCGGAUGCAGAGGAGGCAUGCUUCGGUGGCGCGAUAGCGCCAAUGUCCUCAACCUCCAAUGCAUCCCACCACAUGAUGAUGCGUGAAGAGCGUUGGUUAUUUU [A27C G51U C76U C115G C124G U131A G135U], the “polymerase ribozyme fitness (log ratio)” value is -7.29.

Regarding GACCAAUCUGCCCUCAGAGCUCGAGAACAUCUUCGGAUGCACAGGAGGCAGGCUUCGGUGGCGCGAUAGCGCCAACGUCCUCAACCUGCAAUGCAUCCCACCACAUGAUGAUGGCUGAAGAGCCUUGGUUUUUUG [G42C C88G C114G], the “polymerase ribozyme fitness (log ratio)” value was -4.43.

For GACCAAUCUGCCCUCAGAGCUCGAGAACAUCUUCGGAUGCAGAGGAGGCAGGCUUCGGUGGCGCGAUAGCGGCAACGUCCUCAACCUCCAAUGCAUCCCACCACAUGAUGAUGCCUGAAGGGCCUUGGUUUUUUG [C72G A121G], the “polymerase ribozyme fitness (log ratio)” value was determined as 0.881.

Take GACCAAUCUGCCCUCAGAGCUCGAGAACAUCUUCGGAUGCAGAGGAGGCAGGCUUCGGUGGCGCGAUAGCGCCAACAUCCUCAACCUCCAAUGCAUCCCACCACAUGACGAUGCCUGAAGAGCCUUGGUUUUUUG [G77A U109C]: the “polymerase ribozyme fitness (log ratio)” value is -3.

Consider GACCAAACUCCCCUCAGAGCUCGAGAACAUCUUCGGAUGCAGAGGAGGCAGGCUUCGGUGGCGCGAUAGCGUCAACGUCCUCAACCUCCAAUGCAUCCCACCACAUGAUGAUGCCUGAAGAGCCUUGGUUUUUUG [U7A G10C C72U], for which the “polymerase ribozyme fitness (log ratio)” value was -0.8.

As to GACCAAUCUGCCCUUAGAGCUCGAGAACAUCUUCGGAUGCAGAAGAGGCAGGCUUAGGUGGAGCGAUAGCCCCAACGUCCUCAACCUCCAAUGCAUCCCACCACAUGAUGAUGCCUGAAGAGCCUUGGUUAUUUG [C15U G44A C56A C62A G71C U131A], the “polymerase ribozyme fitness (log ratio)” value was -3.4.

As to GACCAAUCUGCCCUCAGAGCUCGAGAAUAUCUUCGGAUGCAGAGGAGGGAGGCUUCGGUGGCGCGAUAGCGCCAACGUCCUCAACCUCCAAUGCAUCCCACCACAUGAUGAUGCCUGAAGAGCCUUGGUUUUUUG [C28U C49G], the “polymerase ribozyme fitness (log ratio)” value is -3.16.

On to GACCAAUCUGCCCUCAGAGCUCGAGAACAUCUACGGUUGCAGAGGAGGCAGGCUCCGGUGGCGCGAUAGCGCCAACGUCCUCAACCUCCAAUGCAUCCCCCCACAUGAUGAUGCCUGAAGAGCCUUGGUUUUUUG [U33A A37U U55C A100C], for which the “polymerase ribozyme fitness (log ratio)” value was -6.04.

GACCAAUCUGCCCUCAGAGCUCGAGAACAUCUUCGGAUGCAGAGGAGGCAGGCUUCGGUGGCGCGAUAGCGCCUACGUCCUCAACCUCCAAUGCAUCCCACCACAUGAUGAUGCUUGUAGAGCUUUGGUUUUUUG [A74U C115U A118U C124U]: the “polymerase ribozyme fitness (log ratio)” value is -0.812.
